Columns and labels:
[1] = molecular target: epidermal growth factor receptor (EGFR) on A431 epidermoid carcinoma cells (human) (UniProt P00533); experiment: flow cytometry of stained A431 cells immediately before and after FACS
[2] = molecular target: EGFR (epidermal growth factor receptor) (Homo sapiens, UniProt P00533 P00533:25-1210); experiment: flow; apparent; A431 cells, on ice 30 min, media + 1% BSA + salmon sperm DNA; binding blocked or reversed at 37 C by antidotes A9 and mA9 but not scrambled sA9; conditions: tags: endogenous on A431 epidermoid carcinoma cells (ATCC); label: 5' AF488
Protocol: All aptamers were folded in PBS+/+ by denaturation at 65° C. for 5 min followed by passive cooling to ambient temperature for 3 min. In general, 500 nM aptamer solutions were used for staining, but this concentration varied as noted in some assays. For aptamer-SA staining solutions, 2:1 aptamer conjugates were prepared with 1 μM aptamer and 500 nM AF488-SA or AF647-SA. All staining solutions were prepared in Media+ and contained 1 mg/mL salmon sperm DNA to mitigate non-specific binding. All antibodies were used as 1:50 dilutions in Media+ with 1 mg/mL salmon sperm DNA. Both FITC-conjugated ICR10 (Abcam) and PE-conjugated D1D4J (Cell Signaling Technologies) monoclonal EGFR antibodies were used for staining.
A431 cells were stained with various concentrations (25, 50, 125, 250 or 500 nM) of E07 only or E07-SA conjugate mixtures prepared by reacting 1:1, 2:1 or 3:1 biotinylated E07 with tetrameric streptavidin. Stained cells were washed, analyzed by flow cytometry and their fluorescence corresponding to the amount of bound E07 or E07-SA was plotted to determine apparent binding affinities (dissociation constants; KD) and cell surface saturation (total number of receptors; Bmax). Conjugate mixtures prepared from higher E07: SA ratios had higher apparent affinities, but lower apparent saturation.

Row | Molecule | losses during sorting (percent of stain fluorescence lost) [1] [%] | Kd [2] [nM]
1 | FITC-conjugated ICR10 (Abcam) monoclonal EGFR antibody | 11 | –
2 | PE-conjugated D1D4J (Cell Signaling Technologies) monoclonal EGFR antibody | 11 | –
3 | GGACGGAUUUAAUCGCCGUAGAAAGCAUGUCAAAGCCGGAACCGUCC (ssRNA, 2'-F C/U, 2'-OH purines, 3' idT) [E07] | – | 62.7
